From US6342368B1, “WD-40-derived peptides and uses thereof” (The Board of Trustees of the Leland Stanford Junior …, priority 1994, dated 2002)

Key:
RACK1 = target: T1, RACK1 (Rattus norvegicus, UniProt P63245); assay: Overlay assay: concentration dependence of PKC binding to recombinant RACK1; conditions: βPKC in the presence of other PKC isozymes, n=3
T1 construct: an open reading frame of 317 amino acids from the putative translation start site of pRACK1; made in house; host or cells: TB1 E. coli (RACK1); PKC mixture from rat brain
Experimental: Purified recombinant RACK1 protein (100-250 μg per lane, produced as detailed in Example 2) was subjected to SDS/PAGE and blotted onto nitrocellulose membranes (Ausubel). The nitrocellulose membranes were cut into strips, which were incubated for 0.5 hr in overlay buffer (Example 1) in the presence or absence of a mixture of PKC isozymes (α, β, γ, δ, ε and ζ, ˜10 nM each final concentration) and PKC activators (60 μg/ml phosphatidylserine (PS), 2 μg/ml diacylglycerol (DG), and 1 mM CaCl2). Unbound material was removed by five washes, 5-min each, in overlay wash buffer. Where indicated, PKC activators were present during the incubation of PKC with the nitrocellulose strips. The conditions for each sample and corresponding results are presented in part D below.
PKC bound to RACK1 immobilized on nitrocellulose strips was detected as follows. […]
The concentration dependence of PKC binding to RACK1 was characterized with βPKC , since this isozyme is a major component of the PKC mixture used for the overlay assay. The mean half maximal binding was ˜0.375 nM, and maximal binding was ˜4 nM (n=3; values reflect binding of βPKC isozyme in the presence of other PKC isozymes and was determined by scanning autoradiograms in the linear range of detection, as described in Mochly-Rosen, et al., (1991).

[1] = target: mixture of rat brain PKC isozymes (α, β, γ, δ, ε and ζ) (rat); assay: cell-based or functional assay
[2] = target: mixture of rat brain PKC isozymes (α, β, γ, δ, ε and ζ) (rat); assay: overlay plus overlay-extraction assay; 10 µM peptide preincubated with PKC isozyme mixture (~10 nM each); immobilized RACK1
[3] = target: T2, βPKC (rat brain protein kinase C, β isozyme) (rat, UniProt P68403 2-671); assay: slot-blot PKC overlay of immobilized peptide, with PS, DG and calcium, anti-βPKC detection
T2 construct: also called beta PKC; βPKC isozyme

Molecule: βPKC: β isozyme of protein kinase C, major component of the rat brain PKC mixture
- maximal binding to RACK1 (RACK1): ~4 nM
- Kd (RACK1; read-out: mean half maximal binding to RACK1): ~0.375 nM

Molecule: DIINALCF [peptide rVI]
- PKC autophosphorylation in the absence of PKC activators [1]: > 80%

Molecule: KGDYEKILVALCGGN [peptide I]
- % inhibition of PKC binding to recombinant RACK1 [2]: 81%

Molecule: LKGKIL [control peptide]
- binding result [3]: no binding
